In patent publication US20250388694A1 (BOOSTIMMUNE, published 2025):

Tests used:
[1] = biological target: T1, Human TCTP (translationally controlled tumor protein) (human, UniProt P13693 1-172); assay: SPR, Biacore 8K, human TCTP immobilised on CM5 chip, antibody as analyte, 1:1 model
T1 construct: also called HRF; Tpt1
T1 sequence: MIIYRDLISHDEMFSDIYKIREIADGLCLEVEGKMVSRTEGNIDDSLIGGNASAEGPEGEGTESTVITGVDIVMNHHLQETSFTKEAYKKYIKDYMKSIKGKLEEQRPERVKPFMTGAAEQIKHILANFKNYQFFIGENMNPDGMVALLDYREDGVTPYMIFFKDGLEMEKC
Protocol: The antigen binding capacity of antibodies selected in Example 1 was analyzed using a SPR technique. The device used was Biacore 8K (Ge Healthcare). Human TCTP was immobilized on a chip, and antibodies were shed at 6 or 7 different concentrations. A CM5 chip (GE Healthcare, Cat. 29-1275-56), a regeneration buffer (10 mM glycine-HCl (GE Healthcare)), and a driving buffer HBS-EP+, and the like were used. For kinetic analysis, the binding time was set to 100 or 120 seconds, the flow rate was set to 30 or 50 μl/min in the binding phase, and in the dissociation phase, the dissociation time was set to 300 or 360 seconds, and the flow rate was set to 30 or 50 μl/min. The fitting was carried out using a 1:1 combined model, and BIACore Evaluation Software (GE healthcare) was used as the evaluation software.

[2] = biological target: T1, Human TCTP (translationally controlled …); assay: competition ELISA: human TCTP coated at 1 µg/ml, 150 nM TLR2 plus titrated antibody, bound TLR2 detected; % inhibition of TLR2-TCTP binding
[3] = biological target: T1, Human TCTP (translationally controlled …); assay: ELISA, human TCTP coated at 1 µg/ml, antibody titrated, OD 450 nm
Protocol: ELISA was carried out to quantitatively analyze the binding capacity of selected antibodies to antigens. To this end, human TCTP was attached to an ELISA plate at a concentration of 1 μg/ml and then treated with antibodies of various concentrations to check the relative binding capacity. As a result of the measurement, all of antibodies Ab1, Ab2, Ab3, Ab4, Ab5, Ab6, Ab7, Ab8, Ab9, Ab12, Ab13, Ab14, Ab15, Ab17, Ab18, Ab19, Ab20, Ab21, and Ab22 were confirmed to bind well to human TCTP (FIGS. 1a and 1b).

[4] = biological target: T2, mouse TCTP in which the 13th leucine was replaced with methionine (mouse, UniProt P63028 1-172); assay: ELISA on mouse TCTP mutants
T2 construct: One of several mouse-to-human replacement mutants; also called mouse TCTP L13M
T2 sequence (looked up): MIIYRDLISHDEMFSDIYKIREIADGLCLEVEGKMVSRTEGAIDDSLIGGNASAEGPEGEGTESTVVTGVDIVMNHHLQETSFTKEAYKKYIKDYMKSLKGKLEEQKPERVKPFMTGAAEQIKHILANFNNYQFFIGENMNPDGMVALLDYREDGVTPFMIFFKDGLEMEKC

mouse TCTP = biological target: T3, mouse TCTP (mouse, UniProt P63028 1-172); assay: ELISA on mouse TCTP, binder titrated as scFv (axis [scFv] Log(nM)), OD450 [panel Mouse TCTP]
T3 sequence (looked up): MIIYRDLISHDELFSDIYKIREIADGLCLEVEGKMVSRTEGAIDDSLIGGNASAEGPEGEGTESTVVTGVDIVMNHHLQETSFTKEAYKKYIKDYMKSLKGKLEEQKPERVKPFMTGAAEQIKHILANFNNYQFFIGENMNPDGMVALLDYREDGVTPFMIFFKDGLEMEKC

[5] = biological target: T1, Human TCTP (translationally controlled …); assay: ELISA, selection of hybridoma antibodies

B1: Ab20 (antibody, V domains shown)
VH: QVQLQQSGPGLVKPSQTLSLTCAISGDSVSSSSAAWNWIRQSPSRGLEWLGRTFYRSKWYNDYAESVKSRITINADTSKNQFSLQLNSVTPEDTAVYYCARRLTIVRGVMRGGMDVWGQGTTVTVSS
VL: DIVMTQSPDSLTGSLDERATINCKSSQNLLYSANNKDYIAWYQQKPGQSPKLLIYWASIRYSGVPDRFSGSGSGTDFTLTISSLQAEDVAVYYCQQYFSTPWTFGQGTKVEIK
notes: also called antibody Ab20
Kd [1]: 0.704 nM
IC50 (read off the curve) [2]: ~10 nM

B2: Ab8 (antibody, V domains shown)
VH: QVQLVQSGAEVKKPGASVKVSCKASGYTFFSYAMHWVRQAPGQRLEWMGWINAGNGNTKYSQKFQDRVTITRDTSATTAYMELSSLRSEDTAVYYCASWVFDYWGQGTPVTVSS
VL: DIVMTQTPLSSLVTLGQPASISCRSSQSLVHRDGNTYLSWLQQRPGQPPRLLIYKISNRFFGVPDRFSGSGAGTDFTLKISRVEAEDVGVYYCMQATQFPHTFGQGTKLEIK
notes: From Beacon screening; also called antibody Ab8
EC50 (read off the curve) [3]: ~20 ng/mL
Kd [1]: 14 nM
IC50 (read off the curve) [2]: ~6 nM

B3: Ab10 (antibody, V domains shown)
VH: not shown
VL: QSVVTQPPSVSAAPGQKVTISCSGSSSNIGNKKVSWYQQLPVTAPKLLIYDDNKRPSGIPDRFSGSKSGTSATLGITGLQTGDEADYYCATWDSSLRAVVFGGGTKLTVL
notes: also called antibody Ab10; parent antibody
binding result [4]: binds
Kd [1]: 0.224 nM
binding result (mouse TCTP): binds

B4: Ab16 (antibody, V domains shown)
VH: QVQLQQSGPGLVKPSQTLSLTCAISGDSVSSNSAAWNWIRQSPSRGLEWLGRTYYKSKWYNDYAVSVKSRMTINPDTSKNQFSLQLNSVTPEDTAVYYCARGGSAVFDYWGQGTLVTVSS
VL: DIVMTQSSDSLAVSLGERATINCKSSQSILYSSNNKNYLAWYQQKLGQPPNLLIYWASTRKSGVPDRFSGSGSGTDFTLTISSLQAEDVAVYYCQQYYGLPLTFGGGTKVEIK
notes: also called antibody Ab16
binding result [5]: binds

B5: Ab12 (antibody, V domains shown)
VH: QVQLVQSGAEVKKPGASVKVSCKASGYTFTSHAVHWVRQAPGQRLEWMGWINAGKGNTKYSQKFQGRVTITRDTSATTAYMELSSLRSEDTAVYYCARGRAVAFDPWGQGTLVTVSS
VL: RSALTQPPSASGSPGQSVTVSCTGTNSDIGGYNYVSWYKQHPGNAPKLMIYEVNKRPSGVPDRFSGSKSGNTASLTVSGLQTEDEADYYCASYAGDNNLVFGGGTKLTVL
notes: also called antibody Ab12
Kd [1]: 0.168 nM
IC50 (read off the curve) [2]: ~10 nM
